Laboratory results as given in patent US20260158139A1, “CARD9 VARIANT POLYPEPTIDE AND ANTIBODIES DIRECTED THERETO” (The Broad Institute, Inc., priority 2023, published 2026).

System: phosphorylated S104 (pS104) of CARD9, peptides pS104, pS104/R101C, S104
Assay: ELISA of hybridoma clones against CARD9 peptides (antibody specificity)
Type: binding
Conditions: pS104 in the context of either R101 or C101
From the text: FIGS. 9A-9J provide schematics, pictures, a table, graphs showing that CARD9 activation through S104 phosphorylation is impaired by the R101C variant implicated in fungal disease. FIG. 9A, schematic representation of CRISPR KI into CARD9 allele to obtain endogenous CARD9 R101C mutation. Figure discloses SEQ ID NOS 69-71, respectively, in order of appearance. FIG. 9B, representative sequencing result highlighting the presence of mutated base pair (arrow). Figure discloses SEQ ID NOS 72-74, respectively, in order of appearance. FIG. 9C, WB from BMDCs isolated from WT or CARD9 R101C mutant mice. FIG. 9D, WB from splenic CD11c positive cells isolated from WT or CARD9 R101C mutant mice. FIG. 9E, table summarizing hybridoma screening results for binding affinity of different phospho-S104 specific antibodies. ELISA results are shown as values of absorbance at 490 nm, representing antibody reactivity towards either pS104, or pS104/R101C, or S104 peptides. Antibody used in the study is row 6 (i.e., 4F9.H5). FIG. 9F, IL-6 concentration in supernatants from BMDCs from WT, CARD9−/− or CARD9R101C mutant treated with indicated concentrations of WGP, HKCA, HKTR or LPS (10 ng/ml) for 24h. (n=3 mice per condition). […]

B1: phospho-specific CARD9 S104 antibody: mouse monoclonal IgG1 antibody to phosphorylated S104 of CARD9; clone 4F9.H5 used in the study; VH/VL in Table 1 (antibody, V domains shown)
VH: EVQLQQSGPELVKPGASMKMSCKASGYSFTGQTMHWVKQTHGKNLEWIGLINPYNGGTKYNQIFTGKATLTVDKSSSSAYMELLSLTSEDSAVYFCAIWDYVLDYWGQGTSVTVSSAKTTPPSVYPLAPGSAAQTNSMVTLGCLVK
VL: DVVMTQTPLSLPVSLGDQASISCRSSQSLLHSNGKTYLHWYLQKPGQSPKLLIYKVSNRFSGVPDRFSGSGSGTDFTLKISRVEAEDLGVYFCSQSTHIPPTFGGGTKLEIKRADAAPTVSIFPPSSEQLTSGGASVVCF
Q: How did the “recognition of S104 phosphorylation (antibody specificity by ELISA against different peptides)” value turn out when B1 was run?
A: recognizes S104 phosphorylation independently of R101
